Assay results reported in IntAct's records for PubMed 35512704.

B1: Speckle-type POZ protein (Homo sapiens), O43791 (parent)
chain: MSRVPSPPPPAEMSSGPVAESWCYTQIKVVKFSYMWTINNFSFCREEMGEVIKSSTFSSGANDKLKWCLRVNPKGLDEESKDYLSLYLLLVSCPKSEVRAKFKFSILNAKGEETKAMESQRAYRFVQGKDWGFKKFIRRDFLLDEANGLLPDDKLTLFCEVSVVQDSVNISGQNTMNMVKVPECRLADELGGLWENSRFTDCCLCVAGQEFQAHKAILAARSPVFSAMFEHEMEESKKNRVEINDVEPEVFKEMMCFIYTGKAPNLDKMADDLLAAADKYALERLKVMCEDALCSNLSVENAAEILILADLHSADQLKTQAVDFINYHASDVLETSGWKSMVVSHPHLVAEAYRSLASAQCPFLGPPRKRLKQS
partner: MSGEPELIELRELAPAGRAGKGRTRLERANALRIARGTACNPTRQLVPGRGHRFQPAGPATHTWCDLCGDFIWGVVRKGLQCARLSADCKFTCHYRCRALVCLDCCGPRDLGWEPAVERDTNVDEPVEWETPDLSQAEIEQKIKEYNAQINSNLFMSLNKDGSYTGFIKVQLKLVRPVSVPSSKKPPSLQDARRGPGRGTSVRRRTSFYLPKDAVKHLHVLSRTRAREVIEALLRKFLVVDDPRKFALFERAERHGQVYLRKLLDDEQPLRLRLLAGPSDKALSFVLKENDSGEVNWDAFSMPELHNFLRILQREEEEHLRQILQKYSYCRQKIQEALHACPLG
B2: Speckle-type POZ protein (Homo sapiens), O43791 (parent)
chain: B1 chain
partner: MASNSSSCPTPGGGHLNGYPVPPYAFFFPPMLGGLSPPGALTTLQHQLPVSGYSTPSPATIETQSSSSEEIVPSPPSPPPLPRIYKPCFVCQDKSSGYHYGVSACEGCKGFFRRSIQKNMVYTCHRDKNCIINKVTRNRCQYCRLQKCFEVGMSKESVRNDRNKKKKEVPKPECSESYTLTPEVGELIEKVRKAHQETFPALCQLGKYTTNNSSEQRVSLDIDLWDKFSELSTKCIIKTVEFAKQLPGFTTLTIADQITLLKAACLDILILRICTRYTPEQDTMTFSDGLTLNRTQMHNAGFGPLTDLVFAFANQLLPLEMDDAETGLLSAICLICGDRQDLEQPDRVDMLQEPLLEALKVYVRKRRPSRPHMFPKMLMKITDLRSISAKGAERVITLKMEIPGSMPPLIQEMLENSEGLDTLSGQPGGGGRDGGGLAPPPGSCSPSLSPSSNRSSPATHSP

Variants of: B1
Conditions: with rasf1_human RASSF1, Q9NS23

Variant	effect of a mutation on the interaction
MSRVPSPPPPAEMSSGPVAESWCYTQIKVVKFSYMWTINNFSFCREEMGEVIKSSTFSSGANDKLKWCLRVNPKGLDEESKDYLSLYLLLVSCPKSEVRAKCKFSILNAKGEETKAMESQRAYRFVQGKDWGFKKFIRRDFLLDEANGLLPDDKLTLFCEVSVVQDSVNISGQNTMNMVKVPECRLADELGGLWENSRFTDCCLCVAGQEFQAHKAILAARSPVFSAMFEHEMEESKKNRVEINDVEPEVFKEMMCFIYTGKAPNLDKMADDLLAAADKYALERLKVMCEDALCSNLSVENAAEILILADLHSADQLKTQAVDFINYHASDVLETSGWKSMVVSHPHLVAEAYRSLASAQCPFLGPPRKRLKQS [F102C]	with no effect

Variants of: B1
Conditions: with rasf1_human RASSF1, Q9NS23
Remark: another data set of the same source

Variant	effect of a mutation on the interaction
MSRVPSPPPPAEMSSGPVAESWCYTQIKVVKFSYMWTINNFSFCREEMGEVIKSSTFSSGANDKLKWCLRVNPKGLDEESKDYLSLCLLLVSCPKSEVRAKFKFSILNAKGEETKAMESQRAYRFVQGKDWGFKKFIRRDFLLDEANGLLPDDKLTLFCEVSVVQDSVNISGQNTMNMVKVPECRLADELGGLWENSRFTDCCLCVAGQEFQAHKAILAARSPVFSAMFEHEMEESKKNRVEINDVEPEVFKEMMCFIYTGKAPNLDKMADDLLAAADKYALERLKVMCEDALCSNLSVENAAEILILADLHSADQLKTQAVDFINYHASDVLETSGWKSMVVSHPHLVAEAYRSLASAQCPFLGPPRKRLKQS [Y87C]	with no effect

Variants of: B1
Conditions: with rasf1_human RASSF1, Q9NS23
Remark: another data set of the same source

Variant	effect of a mutation on the interaction
MSRVPSPPPPAEMSSGPVAESWCYTQIKVVKFSYMWTINNFSFCREEMGEVIKSSTFSSGANDKLKWCLRVNPKGLDEESKDYLSLYLLLVSCPKSEVRAKFKFSILNAKGEETKAMESQRAYRFVQGKDWGLKKFIRRDFLLDEANGLLPDDKLTLFCEVSVVQDSVNISGQNTMNMVKVPECRLADELGGLWENSRFTDCCLCVAGQEFQAHKAILAARSPVFSAMFEHEMEESKKNRVEINDVEPEVFKEMMCFIYTGKAPNLDKMADDLLAAADKYALERLKVMCEDALCSNLSVENAAEILILADLHSADQLKTQAVDFINYHASDVLETSGWKSMVVSHPHLVAEAYRSLASAQCPFLGPPRKRLKQS [F133L]	with no effect

Variants of: B1
Conditions: with rasf1_human RASSF1, Q9NS23
Remark: another data set of the same source

Variant	effect of a mutation on the interaction
MSRVPSPPPPAEMSSGPVAESWCYTQIKVVKFSYMWTINNFSFCREEMGEVIKSSTFSSGANDKLKWCLRVNPKGLDEESKDYLSLYLLLVSCPKSEVRAKFKFSILNAKGEETKAMESQRAYRFVQGKDWGVKKFIRRDFLLDEANGLLPDDKLTLFCEVSVVQDSVNISGQNTMNMVKVPECRLADELGGLWENSRFTDCCLCVAGQEFQAHKAILAARSPVFSAMFEHEMEESKKNRVEINDVEPEVFKEMMCFIYTGKAPNLDKMADDLLAAADKYALERLKVMCEDALCSNLSVENAAEILILADLHSADQLKTQAVDFINYHASDVLETSGWKSMVVSHPHLVAEAYRSLASAQCPFLGPPRKRLKQS [F133V]	with no effect

Variants of: B2
Conditions: with rara_human RARA

Variant	effect of a mutation on the interaction
MSRVPSPPPPAEMSSGPVAESWCYTQIKVVKFSYMWTINNFSFCREEMGEVIKSSTFSSGANDKLKWCLRVNPKGLDEESKDYLSLYLLLVSCPKSEVRAKCKFSILNAKGEETKAMESQRAYRFVQGKDWGFKKFIRRDFLLDEANGLLPDDKLTLFCEVSVVQDSVNISGQNTMNMVKVPECRLADELGGLWENSRFTDCCLCVAGQEFQAHKAILAARSPVFSAMFEHEMEESKKNRVEINDVEPEVFKEMMCFIYTGKAPNLDKMADDLLAAADKYALERLKVMCEDALCSNLSVENAAEILILADLHSADQLKTQAVDFINYHASDVLETSGWKSMVVSHPHLVAEAYRSLASAQCPFLGPPRKRLKQS [F102C]	with no effect

Variants of: B2
Conditions: with rara_human RARA
Remark: another data set of the same source

Variant	effect of a mutation on the interaction
MSRVPSPPPPAEMSSGPVAESWCYTQIKVVKFSYMWTINNFSFCREEMGEVIKSSTFSSGANDKLKWCLRVNPKGLDEESKDYLSLCLLLVSCPKSEVRAKFKFSILNAKGEETKAMESQRAYRFVQGKDWGFKKFIRRDFLLDEANGLLPDDKLTLFCEVSVVQDSVNISGQNTMNMVKVPECRLADELGGLWENSRFTDCCLCVAGQEFQAHKAILAARSPVFSAMFEHEMEESKKNRVEINDVEPEVFKEMMCFIYTGKAPNLDKMADDLLAAADKYALERLKVMCEDALCSNLSVENAAEILILADLHSADQLKTQAVDFINYHASDVLETSGWKSMVVSHPHLVAEAYRSLASAQCPFLGPPRKRLKQS [Y87C]	with no effect

Variants of: B2
Conditions: with rara_human RARA
Remark: another data set of the same source

Variant	effect of a mutation on the interaction
MSRVPSPPPPAEMSSGPVAESWCYTQIKVVKFSYMWTINNFSFCREEMGEVIKSSTFSSGANDKLKWCLRVNPKGLDEESKDYLSLYLLLVSCPKSEVRAKFKFSILNAKGEETKAMESQRAYRFVQGKDWGVKKFIRRDFLLDEANGLLPDDKLTLFCEVSVVQDSVNISGQNTMNMVKVPECRLADELGGLWENSRFTDCCLCVAGQEFQAHKAILAARSPVFSAMFEHEMEESKKNRVEINDVEPEVFKEMMCFIYTGKAPNLDKMADDLLAAADKYALERLKVMCEDALCSNLSVENAAEILILADLHSADQLKTQAVDFINYHASDVLETSGWKSMVVSHPHLVAEAYRSLASAQCPFLGPPRKRLKQS [F133V]	with no effect

Variants of: B2
Conditions: with rara_human RARA
Remark: another data set of the same source

Variant	effect of a mutation on the interaction
MSRVPSPPPPAEMSSGPVAESWCYTQIKVVKFSYMWTINNFSFCREEMGEVIKSSTFSSGANDKLKWCLRVNPKGLDEESKDYLSLYLLLVSCPKSEVRAKFKFSILNAKGEETKAMESQRAYRFVQGKDWGLKKFIRRDFLLDEANGLLPDDKLTLFCEVSVVQDSVNISGQNTMNMVKVPECRLADELGGLWENSRFTDCCLCVAGQEFQAHKAILAARSPVFSAMFEHEMEESKKNRVEINDVEPEVFKEMMCFIYTGKAPNLDKMADDLLAAADKYALERLKVMCEDALCSNLSVENAAEILILADLHSADQLKTQAVDFINYHASDVLETSGWKSMVVSHPHLVAEAYRSLASAQCPFLGPPRKRLKQS [F133L]	with no effect
